Test results: patent US20250163119A1, “COMPOUNDS FOR THE TREATMENT OF DIABETES OR OBESITY” (Eli Lilly and Company, priority 2023, published 2025)
*1 amine or outer side, *2 acyl side, *3 side chain or, on linkers, in order; H or OH if unused. Where no end group is shown, it is not given here. Side-chain parts run from the residue outwards. [ ]: non-standard residue; d: D form. The star is where a group is joined. C20 diacid = O=C(O)CCCCCCCCCCCCCCCCCCC(=O)*; γGlu = O=C(O)[C@H](CCC(=O)[*:2])N[*:1]; αMeL = CC(C)C[C@](C)(N)C(=O)O; AEEA = NCCOCCOCC(=O)O; Aib = CC(C)(N)C(=O)O

T1: human corticotropin-releasing hormone receptor 1 (CRHR1) (human, UniProt P34998 24-415)
T1 sequence (looked up): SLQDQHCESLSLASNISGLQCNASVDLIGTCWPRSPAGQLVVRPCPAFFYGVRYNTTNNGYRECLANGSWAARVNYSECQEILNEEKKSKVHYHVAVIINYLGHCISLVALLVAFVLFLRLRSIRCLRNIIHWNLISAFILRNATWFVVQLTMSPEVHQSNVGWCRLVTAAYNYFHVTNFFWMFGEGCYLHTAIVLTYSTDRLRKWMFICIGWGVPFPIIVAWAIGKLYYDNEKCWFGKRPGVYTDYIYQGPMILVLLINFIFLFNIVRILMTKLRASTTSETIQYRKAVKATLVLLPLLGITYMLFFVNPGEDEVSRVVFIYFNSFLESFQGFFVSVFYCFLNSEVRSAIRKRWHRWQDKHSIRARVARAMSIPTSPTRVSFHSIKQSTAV

B1: polypeptide comprising SEQ ID NO:43 (peptide)
peptide: Ac-IVTS[αMeL]D[dV]PTG[αMeL]LQIKLEQERAEKARQQAKENTEILAQV-NH2
modifications: not fully specified (residue 29)
B2: polypeptide comprising SEQ ID NO:45 (peptide)
peptide: [γGlu]GPSIVTS[αMeL]D[dV]PI[Aib][αMeL]LQIKLEQERAEKARQQAK([AEEA-AEEA-γGlu-C20 diacid])ENTEILAQV-NH2
B3: polypeptide comprising SEQ ID NO:44 (peptide)
peptide: Ac-IVTS[αMeL]D[dV]PTG[αMeL]LQIKLEQERAEKARQQAKENTEILAQV-NH2
modifications: not fully specified (residue 29)

The binders below were run against T1, human corticotropin-releasing hormone … (assay: cell-based or functional assay).

Row | Binder | hCRHR1 cAMP EC50
1 | B1 | > 10 µM
2 | B2 | 3.7 µM
3 | B3 | > 10 µM
